Each block holds one binder with its values, some of them ahead of it.
How the values were obtained:
FLAG-hDcp1a = molecular target: T1, FLAG-hDcp1a (human, UniProt Q9NPI6 1-582); experiment: in situ proximity ligation assay (anti-Flag and anti-HA) in HeLa cells co-transfected with Dcp1-FLAG and Act1-HA
T1 construct: also called Dcp1-Flag; FLAG-tagged Dcp1; not shown: FLAG tag
T1 sequence (looked up): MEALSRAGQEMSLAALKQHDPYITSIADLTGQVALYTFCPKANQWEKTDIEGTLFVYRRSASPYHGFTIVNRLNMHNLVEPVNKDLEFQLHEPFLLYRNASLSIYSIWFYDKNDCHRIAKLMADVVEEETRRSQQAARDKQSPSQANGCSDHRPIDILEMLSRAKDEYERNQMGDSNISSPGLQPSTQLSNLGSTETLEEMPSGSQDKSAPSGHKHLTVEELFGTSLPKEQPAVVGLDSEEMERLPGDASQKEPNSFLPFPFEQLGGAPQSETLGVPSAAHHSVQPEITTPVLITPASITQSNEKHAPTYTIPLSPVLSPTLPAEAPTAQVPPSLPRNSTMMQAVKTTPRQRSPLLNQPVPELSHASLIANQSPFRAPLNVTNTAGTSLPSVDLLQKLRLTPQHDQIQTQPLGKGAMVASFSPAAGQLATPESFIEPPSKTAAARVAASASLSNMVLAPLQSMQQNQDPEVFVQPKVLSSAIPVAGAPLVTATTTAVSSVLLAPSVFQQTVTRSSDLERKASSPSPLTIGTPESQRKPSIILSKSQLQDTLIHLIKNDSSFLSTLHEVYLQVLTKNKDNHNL

FLAG-hIRAK1 = molecular target: T2, FLAG-hIRAK1 (human, UniProt P51617 1-712); experiment: in situ proximity ligation assay (anti-Flag and anti-HA) in HeLa cells co-transfected with IRAK1-FLAG and Act1-HA (negative control)
T2 construct: Negative control of the PLA; also called IRAK1-Flag; not shown: FLAG tag

FLAG-hDcp2 = molecular target: T3, FLAG-hDcp2 (human, UniProt Q8IU60 1-420); experiment: co-immunoprecipitation with anti-FLAG from transfected HeLa cells, HA blot
T3 construct: also called FLAG-tagged Dcp2; not shown: FLAG tag

T2 sequence (P51617 whole entry): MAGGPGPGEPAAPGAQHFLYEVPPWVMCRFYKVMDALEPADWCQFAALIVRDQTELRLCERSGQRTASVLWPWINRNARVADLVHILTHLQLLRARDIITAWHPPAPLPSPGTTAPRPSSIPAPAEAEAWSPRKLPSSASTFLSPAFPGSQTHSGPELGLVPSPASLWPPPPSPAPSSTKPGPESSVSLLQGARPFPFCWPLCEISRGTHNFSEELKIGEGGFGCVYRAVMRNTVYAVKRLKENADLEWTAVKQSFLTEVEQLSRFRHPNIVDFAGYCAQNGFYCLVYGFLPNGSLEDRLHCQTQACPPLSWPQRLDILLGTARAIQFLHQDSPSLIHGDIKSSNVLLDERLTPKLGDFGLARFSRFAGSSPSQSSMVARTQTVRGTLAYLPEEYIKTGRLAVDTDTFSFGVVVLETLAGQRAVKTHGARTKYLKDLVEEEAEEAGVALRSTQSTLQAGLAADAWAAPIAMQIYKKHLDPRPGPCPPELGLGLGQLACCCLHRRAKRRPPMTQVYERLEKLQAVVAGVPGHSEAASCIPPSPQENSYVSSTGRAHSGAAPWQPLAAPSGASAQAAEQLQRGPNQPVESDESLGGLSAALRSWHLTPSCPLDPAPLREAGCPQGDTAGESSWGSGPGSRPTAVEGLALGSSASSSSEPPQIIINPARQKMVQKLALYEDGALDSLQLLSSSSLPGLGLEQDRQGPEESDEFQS

- binding result (FLAG-hDcp1a): binds
- binding result (FLAG-hIRAK1): no binding
B1: HA-hAct1 (other, human, UniProt O43734 1-574, looked up)
chain: MPPQLQETRMNRSIPVEVDESEPYPSQLLKPIPEYSPEEESEPPAPNIRNMAPNSLSAPTMLHNSSGDFSQAHSTLKLANHQRPVSRQVTCLRTQVLEDSEDSFCRRHPGLGKAFPSGCSAVSEPASESVVGALPAEHQFSFMEKRNQWLVSQLSAASPDTGHDSDKSDQSLPNASADSLGGSQEMVQRPQPHRNRAGLDLPTIDTGYDSQPQDVLGIRQLERPLPLTSVCYPQDLPRPLRSREFPQFEPQRYPACAQMLPPNLSPHAPWNYHYHCPGSPDHQVPYGHDYPRAAYQQVIQPALPGQPLPGASVRGLHPVQKVILNYPSPWDHEERPAQRDCSFPGLPRHQDQPHHQPPNRAGAPGESLECPAELRPQVPQPPSPAAVPRPPSNPPARGTLKTSNLPEELRKVFITYSMDTAMEVVKFVNFLLVNGFQTAIDIFEDRIRGIDIIKWMERYLRDKTVMIIVAISPKYKQDVEGAESQLDEDEHGLHTKYIHRMMQIEFIKQGSMNFRFIPVLFPNAKKEHVPTWLQNTHVYSWPKNKKNILLRLLREEEYVAPPRGPLPTLQVVPL
notes: Printed as HA-hAct1 in the constructs and Act1-HA in the legends; also called Act1-HA; not shown: HA tag

- binding result (FLAG-hDcp2): no binding
B2: HA-TBK1 (enzyme, not shown: small tags and cut ends)
chain: MQSTSNHLWLLSDILGQGATANVFRGRHKKTGDLFAIKVFNNISFLRPVDVQMREFEVLKKLNHKNIVKLFAIEEETTTRHKVLIMEFCPCGSLYTVLEEPSNAYGLPESEFLIVLRDVVGGMNHLRENGIVHRDIKPGNIMRVIGEDGQSVYKLTDFGAARELEDDEQFVSLYGTEEYLHPDMYERAVLRKDHQKKYGATVDLWSIGVTFYHAATGSLPFRPFEGPRRNKEVMYKIITGKPSGAISGVQKAENGPIDWSGDMPVSCSLSRGLQVLLTPVLANILEADQEKCWGFDQFFAETSDILHRMVIHVFSLQQMTAHKIYIHSYNTATIFHELVYKQTKIISSNQELIYEGRRLVLEPGRLAQHFPKTTEENPIFVVSREPLNTIGLIYEKISLPKVHPRYDLDGDASMAKAITGVVCYACRIASTLLLYQELMRKGIRWLIELIKDDYNETVHKKTEVVITLDFCIRNIEKTVKVYEKLMKINLEAAELGEISDIHTKLLRLSSSQGTIETSLQDIDSRLSPGGSLADAWAHQEGTHPKDRNVEKLQVLLNCMTEIYYQFKKDKAERRLAYNEEQIHKFDKQKLYYHATKAMTHFTDECVKKYEAFLNKSEEWIRKMLHLRKQLLSLTNQCFDIEEEVSKYQEYTNELQETLPQKMFTASSGIKHTMTPIYPSSNTLVEMTLGMKKLKEEMEGVVKELAENNHILERFGSLTMDGGLRNVDCL
notes: also called HA-tagged TBK1

— patent publication US20230009539A1 (CLEVELAND CLINIC FOUNDATION, published 2023)
